This is an account of results in publication PMC8831599, “Defining molecular glues with a dual-nanobody cannabidiol sensor” (Nature Communications, 2022).

Assay [1] addresses Biotin-DB21 (biotinylated Avi-DB21). Briefly: BLI; biotinylated DB21 on streptavidin probe, tag-free CA14 as analyte, no CBD; 30 °C; 25 mM HEPES pH 7.4, 100 mM NaCl, no TCEP, 0.1% Tween-20, 0.05 mg/mL BSA; kinetic and steady-state analysis differ. Background: In BLI a coated tip is dipped into the sample, and binding shifts an interference pattern.
Assay [2] has the same target. Briefly: AlphaScreen or HTRF; competition without CBD: 200 nM His-CA14 on acceptor beads, 67 nM biotinylated DB21 (wild type or mutant) on streptavidin donor beads, label-free protein titrated; 25 mM HEPES pH 7.4, 100 mM NaCl, no TCEP, 0.1% Tween-20, 0.05 mg/mL BSA. Background: Bead proximity is the source of the signal in Alpha formats.

B1: CA14 anchor binder nanobody, tag-free (VHH)
VHH: EVQLQASGGGFVQPGGSLRLSCAASGSTSRQYDMGWFRQAPGKEREFVSAISSNQDQPPYYADSVKGRFTISRDNSKNTVYLQMNSLRAEDTATYYCAFKQHHANGAYWGQGTQVTVSS
Usually Kd stands for the concentration at which binding is half-saturated. What is called IC50 is the midpoint of a concentration-inhibition curve. B1: in assay [1], the Kd was 19 µM and the Kd determined by kinetics worked out at 3 µM. The IC50 in assay [2] was 20 µM.
